Results published in US20200087373A1 (UNIVERSITY OF COPENHAGEN, published 2020).
Ends that are not written are not given here. * marks the point of attachment. C16 diacid = O=C(O)CCCCCCCCCCCCCCC(=O)*; Stearoyl = CCCCCCCCCCCCCCCCCC(=O)*; Palmitoyl = CCCCCCCCCCCCCCCC(=O)*; Myristoyl = CCCCCCCCCCCCCC(=O)*; Lauroyl = CCCCCCCCCCCC(=O)*

T1: human GIP receptor (human, UniProt P48546 22-466)
T1 construct: whole, on cells; also called hGIPR
T1 sequence (looked up): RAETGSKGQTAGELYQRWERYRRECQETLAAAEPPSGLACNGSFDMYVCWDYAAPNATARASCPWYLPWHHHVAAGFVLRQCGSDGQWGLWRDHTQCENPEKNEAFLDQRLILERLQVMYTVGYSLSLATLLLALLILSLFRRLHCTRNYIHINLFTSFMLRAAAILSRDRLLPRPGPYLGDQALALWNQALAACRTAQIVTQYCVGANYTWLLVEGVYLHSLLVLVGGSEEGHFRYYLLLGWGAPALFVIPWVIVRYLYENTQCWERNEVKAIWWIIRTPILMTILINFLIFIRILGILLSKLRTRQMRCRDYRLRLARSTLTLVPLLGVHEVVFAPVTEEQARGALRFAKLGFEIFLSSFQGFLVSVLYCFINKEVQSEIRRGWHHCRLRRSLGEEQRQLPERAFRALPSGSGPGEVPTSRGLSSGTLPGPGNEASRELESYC


Tests used:
human GIP receptor [1] = molecular target: T1, human GIP receptor; test: 125I-hGIP competition binding, COS-7 cells expressing hGIPR;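 note: nonspecific binding taken as radioligand bound by untransfected cells, binding buffer with or without 2% HSA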
Procedure: After incubation, the cells were washed twice in ice-cold binding buffer (+/−2% HSA) and lysed using 200 mM NaOH with 1% SDS for 30 min. Nonspecific binding was determined as the binding of radioactive ligand to untransfected cells.

human GIP receptor [2] = molecular target: T1, human GIP receptor; test: cell-based or functional assay

| Binder | IC50 (human GIP receptor [1]) [nM] | log IC50 (human GIP receptor [1]) [log M] | other results |
| --- | --- | --- | --- |
| EGTFISDYSIAMDKIHQQDFVNWLLAQK(Palmitoyl)-NH2 [AT106 [hGIP(3-30)NH2-C16/30]] | 1410 | -5.9 | – |
| TFISDYSIAMDKIHQQDFVNWLLAQK(Myristoyl)-NH2 (N-terminus assumed; SMILES CCCCCCCCCCCCCC(=O)NCCCC[C@H](NC(=O)[C@H](CCC(N)=O)NC(=O)[C@H](C)NC(=O)[C@H](CC(C)C)NC(=O)[C@H](CC(C)C)NC(=O)[C@H](Cc1c[nH]c2ccccc12)NC(=O)[C@H](CC(N)=O)NC(=O)[C@@H](NC(=O)[C@H](Cc1ccccc1)NC(=O)[C@H](CC(=O)O)NC(=O)[C@H](CCC(N)=O)NC(=O)[C@H](CCC(N)=O)NC(=O)[C@H](Cc1c[nH]cn1)NC(=O)[C@@H](NC(=O)[C@H](CCCCN)NC(=O)[C@H](CC(=O)O)NC(=O)[C@H](CCSC)NC(=O)[C@H](C)NC(=O)[C@@H](NC(=O)[C@H](CO)NC(=O)[C@H](Cc1ccc(O)cc1)NC(=O)[C@H](CC(=O)O)NC(=O)[C@H](CO)NC(=O)[C@@H](NC(=O)[C@H](Cc1ccccc1)NC(=O)[C@@H](N)[C@@H](C)O)[C@@H](C)CC)[C@@H](C)CC)[C@@H](C)CC)C(C)C)C(N)=O) [AT123 [hGIP(5-30)NH2-C14/30]] | 674 | -6.2 | – |
| EGTFISDYSIAMDKIHQQDFVNWLLAQK(Myristoyl)-NH2 [AT112 [hGIP(3-30)NH2-C14/30]] | 451 | -6.3 | – |
| Myristoyl-EGTFISDYSIAMDKIHQQDFVNWLLAQK-NH2 [AT110 [hGIP(3-30)NH2-C14/3]] | 55.5 | -7.3 | – |
| Stearoyl-EGTFISDYSIAMDKIHQQDFVNWLLAQK-NH2 [AT113 [hGIP(3-30)NH2-C18/3]] | 41400 | -4.4 | – |
| EGTFISDYSIAMDK(Lauroyl)IHQQDFVNWLLAQK-NH2 (printed with the same formula as AT102 but a different ID and different values) [AT154 [hGIP(3-30)NH2-C12/16]] | 27 | -8 | – |
| TFISDYSIAMDRIK(C16 diacid)QQDFVNWLLAQR-NH2 (N-terminus assumed; SMILES CC[C@H](C)[C@H](NC(=O)[C@H](CO)NC(=O)[C@H](Cc1ccc(O)cc1)NC(=O)[C@H](CC(=O)O)NC(=O)[C@H](CO)NC(=O)[C@@H](NC(=O)[C@H](Cc1ccccc1)NC(=O)[C@@H](N)[C@@H](C)O)[C@@H](C)CC)C(=O)N[C@@H](C)C(=O)N[C@@H](CCSC)C(=O)N[C@@H](CC(=O)O)C(=O)N[C@@H](CCCNC(=N)N)C(=O)N[C@H](C(=O)N[C@@H](CCCCNC(=O)CCCCCCCCCCCCCCC(=O)O)C(=O)N[C@@H](CCC(N)=O)C(=O)N[C@@H](CCC(N)=O)C(=O)N[C@@H](CC(=O)O)C(=O)N[C@@H](Cc1ccccc1)C(=O)N[C@H](C(=O)N[C@@H](CC(N)=O)C(=O)N[C@@H](Cc1c[nH]c2ccccc12)C(=O)N[C@@H](CC(C)C)C(=O)N[C@@H](CC(C)C)C(=O)N[C@@H](C)C(=O)N[C@@H](CCC(N)=O)C(=O)N[C@@H](CCCNC(=N)N)C(N)=O)C(C)C)[C@@H](C)CC) [AT157 [hGIP(5-30)NH2[K16R; H18K; K30R]-C16diacid/18]] | – | – | cAMP agonism (human GIP receptor [2]): 3 nM; cAMP agonism, EC50 (log) (human GIP receptor [2]): -8 log M; cAMP agonism, Emax (human GIP receptor [2]): 12; cAMP antagonism (human GIP receptor [2]): 7 nM; cAMP antagonism, log (human GIP receptor [2]): -8.1 log M |
| EGTFISDYSIAMDKIHQQDFVNWLLAQK(Stearoyl)-NH2 [AT115 [hGIP(3-30)NH2-C18/30]] | 1520 | -5.8 | – |
| TFISDYSIAMDK(C18 fatty acyl)IHQQDFVNWLLAQK-NH2 [AT128 [hGIP(5-30)NH2-C18/16]] | 466 | -6.3 | – |
| EGTFISDYSIAMDK(Palmitoyl)IHQQDFVNWLLAQK-NH2 [AT105 [hGIP(3-30)NH2-C16/16]] | 522 | -6.3 | – |
| Lauroyl-EGTFISDYSIAMDKIHQQDFVNWLLAQK-NH2 (printed with the same formula as AT101 but a different ID and different values) [AT148 [hGIP(3-30)NH2-C12/3]] | 24 | -8 | – |
| TFISDYSIAMDKIHQQDFVNWLLAQK(Lauroyl)-NH2 (N-terminus assumed; SMILES CCCCCCCCCCCC(=O)NCCCC[C@H](NC(=O)[C@H](CCC(N)=O)NC(=O)[C@H](C)NC(=O)[C@H](CC(C)C)NC(=O)[C@H](CC(C)C)NC(=O)[C@H](Cc1c[nH]c2ccccc12)NC(=O)[C@H](CC(N)=O)NC(=O)[C@@H](NC(=O)[C@H](Cc1ccccc1)NC(=O)[C@H](CC(=O)O)NC(=O)[C@H](CCC(N)=O)NC(=O)[C@H](CCC(N)=O)NC(=O)[C@H](Cc1c[nH]cn1)NC(=O)[C@@H](NC(=O)[C@H](CCCCN)NC(=O)[C@H](CC(=O)O)NC(=O)[C@H](CCSC)NC(=O)[C@H](C)NC(=O)[C@@H](NC(=O)[C@H](CO)NC(=O)[C@H](Cc1ccc(O)cc1)NC(=O)[C@H](CC(=O)O)NC(=O)[C@H](CO)NC(=O)[C@@H](NC(=O)[C@H](Cc1ccccc1)NC(=O)[C@@H](N)[C@@H](C)O)[C@@H](C)CC)[C@@H](C)CC)[C@@H](C)CC)C(C)C)C(N)=O) [AT120 [hGIP(5-30)NH2-C12/30]] | 1090 | -6 | – |
| TFISDYSIAMDKIHQQDFVNWLLAQK(Palmitoyl)-NH2 (N-terminus assumed; SMILES CCCCCCCCCCCCCCCC(=O)NCCCC[C@H](NC(=O)[C@H](CCC(N)=O)NC(=O)[C@H](C)NC(=O)[C@H](CC(C)C)NC(=O)[C@H](CC(C)C)NC(=O)[C@H](Cc1c[nH]c2ccccc12)NC(=O)[C@H](CC(N)=O)NC(=O)[C@@H](NC(=O)[C@H](Cc1ccccc1)NC(=O)[C@H](CC(=O)O)NC(=O)[C@H](CCC(N)=O)NC(=O)[C@H](CCC(N)=O)NC(=O)[C@H](Cc1c[nH]cn1)NC(=O)[C@@H](NC(=O)[C@H](CCCCN)NC(=O)[C@H](CC(=O)O)NC(=O)[C@H](CCSC)NC(=O)[C@H](C)NC(=O)[C@@H](NC(=O)[C@H](CO)NC(=O)[C@H](Cc1ccc(O)cc1)NC(=O)[C@H](CC(=O)O)NC(=O)[C@H](CO)NC(=O)[C@@H](NC(=O)[C@H](Cc1ccccc1)NC(=O)[C@@H](N)[C@@H](C)O)[C@@H](C)CC)[C@@H](C)CC)[C@@H](C)CC)C(C)C)C(N)=O) [AT126 [hGIP(5-30)NH2-C16/30]] | 7790 | -5.1 | – |
| TFISDYSIAMDKIK(Stearoyl)QQDFVNWLLAQK-NH2 (N-terminus assumed; SMILES CCCCCCCCCCCCCCCCCC(=O)NCCCC[C@H](NC(=O)[C@@H](NC(=O)[C@H](CCCCN)NC(=O)[C@H](CC(=O)O)NC(=O)[C@H](CCSC)NC(=O)[C@H](C)NC(=O)[C@@H](NC(=O)[C@H](CO)NC(=O)[C@H](Cc1ccc(O)cc1)NC(=O)[C@H](CC(=O)O)NC(=O)[C@H](CO)NC(=O)[C@@H](NC(=O)[C@H](Cc1ccccc1)NC(=O)[C@@H](N)[C@@H](C)O)[C@@H](C)CC)[C@@H](C)CC)[C@@H](C)CC)C(=O)N[C@@H](CCC(N)=O)C(=O)N[C@@H](CCC(N)=O)C(=O)N[C@@H](CC(=O)O)C(=O)N[C@@H](Cc1ccccc1)C(=O)N[C@H](C(=O)N[C@@H](CC(N)=O)C(=O)N[C@@H](Cc1c[nH]c2ccccc12)C(=O)N[C@@H](CC(C)C)C(=O)N[C@@H](CC(C)C)C(=O)N[C@@H](C)C(=O)N[C@@H](CCC(N)=O)C(=O)N[C@@H](CCCCN)C(N)=O)C(C)C) [AT161 [hGIP(5-30)NH2[H18K]-C18/18]] | – | – | cAMP agonism (human GIP receptor [2]): 1060 nM; cAMP agonism, EC50 (log) (human GIP receptor [2]): -6 log M; cAMP agonism, Emax (human GIP receptor [2]): 7; cAMP antagonism (human GIP receptor [2]): 252 nM; cAMP antagonism, log (human GIP receptor [2]): -6.6 log M |
| TFISDYSIAMDK(Palmitoyl)IHQQDFVNWLLAQK-NH2 (N-terminus assumed; SMILES CCCCCCCCCCCCCCCC(=O)NCCCC[C@H](NC(=O)[C@H](CC(=O)O)NC(=O)[C@H](CCSC)NC(=O)[C@H](C)NC(=O)[C@@H](NC(=O)[C@H](CO)NC(=O)[C@H](Cc1ccc(O)cc1)NC(=O)[C@H](CC(=O)O)NC(=O)[C@H](CO)NC(=O)[C@@H](NC(=O)[C@H](Cc1ccccc1)NC(=O)[C@@H](N)[C@@H](C)O)[C@@H](C)CC)[C@@H](C)CC)C(=O)N[C@H](C(=O)N[C@@H](Cc1c[nH]cn1)C(=O)N[C@@H](CCC(N)=O)C(=O)N[C@@H](CCC(N)=O)C(=O)N[C@@H](CC(=O)O)C(=O)N[C@@H](Cc1ccccc1)C(=O)N[C@H](C(=O)N[C@@H](CC(N)=O)C(=O)N[C@@H](Cc1c[nH]c2ccccc12)C(=O)N[C@@H](CC(C)C)C(=O)N[C@@H](CC(C)C)C(=O)N[C@@H](C)C(=O)N[C@@H](CCC(N)=O)C(=O)N[C@@H](CCCCN)C(N)=O)C(C)C)[C@@H](C)CC) [AT125 [hGIP(5-30)NH2-C16/16]] | 714 | -6.1 | – |
